Here are results for 1 molecule from PMC6973309.

This experiment has as its target human CX3CR1 (human) (UniProt P49238).

Chain of human CX3CR1 (human) (P49238 whole entry): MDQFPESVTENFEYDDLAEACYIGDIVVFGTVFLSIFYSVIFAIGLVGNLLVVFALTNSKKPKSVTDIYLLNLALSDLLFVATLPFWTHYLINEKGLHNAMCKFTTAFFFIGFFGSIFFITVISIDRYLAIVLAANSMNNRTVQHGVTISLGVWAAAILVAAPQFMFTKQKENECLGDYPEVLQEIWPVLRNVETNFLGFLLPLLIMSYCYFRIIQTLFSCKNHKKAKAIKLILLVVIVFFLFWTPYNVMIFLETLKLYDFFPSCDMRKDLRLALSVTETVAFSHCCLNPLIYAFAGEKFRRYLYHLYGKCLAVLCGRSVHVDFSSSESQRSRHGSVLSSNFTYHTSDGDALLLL

B1: mouse fractalkine (ligand)
chain: QHLGMTKCEIMCDKMTSRIPVALLIRYQLNQESCGKRAIVLETTQHRRFCADPKEKWVQDAMKHLDHQAAALTKNGGKFEKRVDNVTPGITLATRGLSPSALTKPESATLEDLALELTTISQEARGTMGTSQEPPAAVTGSSLSTSEAQDAGLTAKPQSIGSFEAADISTTVWPSPAVYQSGSSSWAEEKATESPSTTAPSPQVSTTSPSTPEENVGSEGQPPWVQGQDLSPEKSLGSEEINPVHTDNFQERGPGNTVHPSVAPISSEETPSPELVASGSQAPKIEEPIHATADPQKLSVLITPVPDTQAATRRQAVGLLAFLGLLFCLGVAMFAYQSLQGCPRKMAGEMVEGLRYVPRSCGSNSYVLVPV
As to B1, the EC50 in the calcium flux assay came to 4.8 nM.
